Experimental data from the DeepSol protein solubility set.

test: soluble on expression in E. coli; label from the status in PepcDB or PDB records

Sequence	soluble on expression in E. coli
MAHHHHHHMEVRRIAPIGRAAVLVMKNVSGNMWAGYSDGAIRVFDHVTQKVLRQSTQHTAAVYAMCAADGYVFTGGADGKVYQWMADDLHYSHMYYGHRNAVRSLTTYTDQKSRCRYVVSGSDDGTVKVWEATVAKTSGTPRKDGGCVSTLDGQGRCVLSILVLEDAAELWAGSEDSVIRVWDLSSMTVTTVITGHRAPVVTLLKVGDTVWSGSKDGAITITNRFSKDIVHQASQPPANRSAAPGGQRSSVSILPVTRTVVYEVWATAVDGSWQCWNFTVPEGVKSYVEEADVLKGGWCPSHSRPQRLSRVGQRSSRNVRSSSVNEYSENGLHSASARARRSDEKLRASVAQTRRTVAVLLAGSKVHQGLGAHNGNGFAHRNEAASVDIVDDDDTPLDIVAESIRNDHTAETQREVQLKQAALAKERRKSAKLRAALEMMCKDPVAIAEEGAKKVFRRTDSLVIAETLAMERQSGKLGSPTTEKLVGVSSQLELLKAQNKAMAAAVTESKKVPD	soluble
MSLQDLTINAIGAQGDGLARTADGKPAFVPLTLPGEVVRAKMDGARGEVVEILAPSPERVAPACRHYGVCGGCALQHWAAEPYRAWKAEQVRLQLSMEGLETEILPTFAAPPASRRRVALHARKGGKGQGARLGFKERRSWNLVSIEECPVTDPRLVAALPALARLAEPFLEHPKSAPTLHVTLTATGLDIDITGVERKSGGLSADARMRAAMAAGEGDFARVTLAGETIYGARQPLVKLGQAVVALPPGSFLQAVPAAEKAMVELAVAEAQGASRVADLYCGVGTFTFPLAEVAQVYAAEMSAPAITALKAAIGGAPGLKPITAEARDLVRRPVLSTELAKTDVVVIDPPRAGAAEQTVEIAKSKVAKVLGVSCNPQTFAKDARVLVDAGFKLVRVTPVDQFVWSPHIELVGVFTREGHHHHHH	soluble
MQSVDVAIVGGGMVGLAVACGLQGSGLRVAVLEQRVPEPLAVDALPQLRVSAINAASEKLLTRLGVWQDILARRASCYHGMEVWDKDSFGHISFDDQSMGYSHLGHIVENSVIHYALWNKAQQSSDITLLAPTELQQVAWGENETFLTLKDGSMLTARLVIGADGANSWLRNKADIPLTFWDYQHHALVATIRTEEPHDAVARQVFHGEGILAFLPLSDPHLCSIVWSLSPEEAQRMQQASEDEFNRALNIAFDNRLGLCKVESARQVFPLTGRYACQFAAHRLALVGDAAHTIHPLAGQGVNLGFMDAAELIAELKRLHRQGKDIGQYIYLRRYERSRKHSAALMLAGMQGFRDLFSGANPAKKLLRDIGLKLADTLPGVKPQLIRQAMGLNDLPEWLRLEHHHHHH	soluble
EGFRIAFISDLHYKSLLKEKGLNNLVDLLIAQKPDVLLMGGDYQEGCEYVEPLFAALARVKTPMGTFGVMGNNDYERCHDEIIRTMKHYGMRPLEHEVDTLRKDGQQIILAGVRNPFDLKQNGVSPTLALSPNDFVILLVHTPDYVEDVSVANTDIALAGHTHGGQVRVFGYAPIQNSHYGTRF	not soluble
MGSDKIHHHHHHMKAAIITKYKQITPMVTEVPVPTIAPTDVLVKIVAASVNPIDLKTKDGDLRLLLQYTMPLIMGSDFAGVITAVGDQVPDFKVGDAVYGRAPKDRIGTFAEFIAIDHQAIALKPANLNFEEAAAIPLVGLTSYQALHDIMNIQPGQKVFIPGGSGGIGIIAIQLAKYFGAYVATTTSAKHFDLVQSLGADKIIDYHQQDFTDVLSHYDAVLDTRGGQSLEAAFQIIKPGGQIVSIAGLPNARFGKDYGLPIWKQWLLGLATRKLSRLEQQAQATYSFLFMQPSGQQLVRLRQLIEQGVIKPVVDRIIPLTDINAALEYSHSGHTTGKIIISIQPN	not soluble
MAAASFAPFQDLANLLIPYTHAEKIDGSHDVSHLLRVWKNVCAIRDREGGDARVLMAATLLHDCVSVEKDSPFRAGASRLAAARARELLGDMGWDEESIASVAHAVEAHSFSAAITPVSLEAKILQDADRLDSLGMIGVARTFYVSGRMGKYLYEPNDPHASQRPYDDKRFAVDHFHTKLLHLADGFQTRTGTQMAKVRHDRLKRFLDELMEEIDASRPLEHHHHHH	not soluble
MKYSLCTISFRHQLISFTDIVQFAYENGFEGIELWGTHAQNLYMQEYETTERELNCLKDKTLEITMISDYLDISLSADFEKTIEKCEQLAILANWFKTNKIRTFAGQKGSADFSQQERQEYVNRIRMICELFAQHNMYVLLETHPNTLTDTLPSTLELLGEVDHPNLKINLDFLHIWESGADPVDSFQQLRPWIQHYHFKNISSADYLHVFEPNNVYAAAGNRTGMVPLFEGIVNYDEIIQEVRDTDHFASLEWFGHNAKDILKAEMKVLTNRNLEVVTSENLYFQ	soluble
